Test results published in publication PMC2745997 (Nature neuroscience, 2009).

B1: 125I-BMP7 (ligand, UniProt P18075 293-431, looked up)
chain: STGSKQRSQNRSKTPKNQEALRMANVAENSSSDQRQACKKHELYVSFRDLGWQDWIIAPEGYAAYYCEGECAFPLNSYMNATNHAIVQTLVHFINPETVPKPCCAPTQLNAISVLYFDDSSNVILKKYRNMVVRACGCH
modifications: 125I label (iodinated)

Experiments:
UNC-5/HA (C. elegans) = assay: LUMIER
RCM-HA (in Cos-7 cells) = RCM-HA (in Cos-7 cells) ( (mammalian), UniProt O08747 41-931); assay: radioligand binding
RCM-HA (in Cos-7 cells), sequence (O08747 41-931): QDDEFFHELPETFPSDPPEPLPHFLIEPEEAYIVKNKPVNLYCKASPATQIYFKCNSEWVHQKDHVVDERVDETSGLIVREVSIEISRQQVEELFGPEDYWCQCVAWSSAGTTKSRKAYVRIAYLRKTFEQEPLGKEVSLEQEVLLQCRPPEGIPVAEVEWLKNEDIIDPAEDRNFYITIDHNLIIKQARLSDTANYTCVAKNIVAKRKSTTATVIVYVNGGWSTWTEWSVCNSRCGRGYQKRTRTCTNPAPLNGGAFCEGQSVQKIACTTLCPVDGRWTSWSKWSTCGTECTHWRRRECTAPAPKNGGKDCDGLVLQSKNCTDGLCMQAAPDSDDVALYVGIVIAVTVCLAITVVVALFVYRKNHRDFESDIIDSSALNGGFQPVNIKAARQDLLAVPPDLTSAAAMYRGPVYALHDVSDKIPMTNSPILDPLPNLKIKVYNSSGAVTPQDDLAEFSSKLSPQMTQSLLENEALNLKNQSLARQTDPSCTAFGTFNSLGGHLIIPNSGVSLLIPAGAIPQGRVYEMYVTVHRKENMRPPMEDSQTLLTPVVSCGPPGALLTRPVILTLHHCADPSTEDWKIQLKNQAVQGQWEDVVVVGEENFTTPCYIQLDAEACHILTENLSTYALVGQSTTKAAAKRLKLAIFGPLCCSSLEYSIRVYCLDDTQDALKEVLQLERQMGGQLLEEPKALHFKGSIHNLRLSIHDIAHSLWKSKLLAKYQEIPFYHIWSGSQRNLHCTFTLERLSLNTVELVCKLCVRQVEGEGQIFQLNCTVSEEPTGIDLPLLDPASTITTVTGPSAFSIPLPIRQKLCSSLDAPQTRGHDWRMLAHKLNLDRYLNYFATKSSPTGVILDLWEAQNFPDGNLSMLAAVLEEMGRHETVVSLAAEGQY

UNC-5/HA (C. elegans), sequence (Q26261 whole entry): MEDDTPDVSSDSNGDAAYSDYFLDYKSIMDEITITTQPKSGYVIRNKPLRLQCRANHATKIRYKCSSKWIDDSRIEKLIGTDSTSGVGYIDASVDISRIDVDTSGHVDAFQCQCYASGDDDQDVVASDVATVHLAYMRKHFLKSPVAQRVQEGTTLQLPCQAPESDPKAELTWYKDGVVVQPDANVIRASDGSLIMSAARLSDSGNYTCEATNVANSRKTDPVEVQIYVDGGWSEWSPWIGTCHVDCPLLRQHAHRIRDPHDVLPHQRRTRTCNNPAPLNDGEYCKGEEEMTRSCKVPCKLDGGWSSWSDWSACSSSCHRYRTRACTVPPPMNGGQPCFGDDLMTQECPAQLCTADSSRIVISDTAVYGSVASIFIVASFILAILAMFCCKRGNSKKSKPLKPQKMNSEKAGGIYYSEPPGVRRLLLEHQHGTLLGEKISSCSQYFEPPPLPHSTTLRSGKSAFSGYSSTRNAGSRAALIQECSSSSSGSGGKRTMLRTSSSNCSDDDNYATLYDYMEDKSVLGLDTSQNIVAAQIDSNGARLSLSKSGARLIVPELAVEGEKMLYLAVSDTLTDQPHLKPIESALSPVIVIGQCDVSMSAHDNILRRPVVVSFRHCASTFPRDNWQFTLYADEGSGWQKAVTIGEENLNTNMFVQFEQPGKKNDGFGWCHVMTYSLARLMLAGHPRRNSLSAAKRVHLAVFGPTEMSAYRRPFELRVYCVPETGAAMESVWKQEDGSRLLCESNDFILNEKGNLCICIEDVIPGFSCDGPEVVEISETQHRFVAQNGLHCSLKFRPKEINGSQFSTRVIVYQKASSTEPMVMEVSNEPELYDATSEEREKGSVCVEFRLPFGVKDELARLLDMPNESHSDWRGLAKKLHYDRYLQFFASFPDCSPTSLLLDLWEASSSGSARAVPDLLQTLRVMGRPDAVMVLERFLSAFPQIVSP

Molecule	fold increase in luciferase activity over mock transfected cells (UNC-5/HA (C. elegans))	Kd (RCM-HA (in Cos-7 cells))
Gluc-UNC-129 (from UniProt G5EBY8 19-407) (ligand)	7 fold	
B1		4 nM
